The data set can be described thus: Constant-force (CF) single-molecule optical tweezers folding assay of guanine-aptamer RNAs in guanine buffer. The data set is classed as physicochemical. To be noted: 3 mM Mg^2+; for Folding rate kf / Transition distance ΔX / Unfolding rate ku / ΔG (0): 1 uM G; for ΔG (0): zero force. An excerpt: The aptamer folding was monitored in real time using a constant-force (CF) assay. Equilibrium sampling techniques provide unprecedented insights into the rare events in the course of folding that are otherwise difficult to identify. The technique also allows for determination of the kinetic rates that has not been fully investigated in the guanine riboswitch. The relative dynamics of the helices have been investigated in ensemble and smFRET experiments, which indicated a non-dynamic P1-P3, upon which the P2 helix switches conformations. As shown in FIG. 6A (left panel), the RNA oscillated between the linear and the hairpin conformations (E↔D↔C) at 13 pN. The distances ΔXED=7.1±0.4 nm and ΔXDC=7.9±0.4 nm correspond to the folding of a 17±1 nt (P2) and 19±1 nt (P3) respectively (FIGS. 7A-B). The conversion of distances to nucleotides in CF assay are described in Table 2.
A miniaturized dual beam optical tweezers instrument was constructed with a sampling rate of 0.4, 4 and 40 kHz. Typically, in the tweezers set up (FIGS. 2A-E), a single-molecule of RNA is held between two beads via ˜550 nucleotide (nt) long Handles A and B. Preparation of Handles and the RNA is described in the section above. The streptavidin coated polystyrene bead (diameter 1.5-1.9 μm, Spherotech Inc.) is fixed on a micropipette via suction, and the anti-digoxigenin coated bead (diameter 4.0-4.9 μm, Spherotech Inc.) is held in the dual counter-propagating laser beam. The trap stiffness, K is measured at 0.04-0.06 pN/nm from the power spectrum analysis of the Brownian motion of the trapped bead. For power spectrum analysis, a polystyrene bead with diameter ˜4.6 μm is trapped in the counter-propagating laser beam in aqueous buffer with a fixed trap position. […] The average from 10 beads yielded K˜0.049±0.0008 pN/nm, and the stoke's drag coefficient, y=0.0364±0.0002 pN. s/μm. […] However, the autocorrelation time (τ0) defined as the τ1=1/2πfc as described by Zoldak et al., “Ultrafast folding kinetics and cooperativity of villin headpiece in single-molecule force spectroscopy”. Proc. Natl. Acad. Sci. U.S.A 110, 18156 (2013) sets the detection limit for the observable kinetics, which is different from the sampling frequencies. […] The ACF for the time series of force signal, Fi, with sampling rate δ and N data points, is calculated as,
In a constant-force (CF) experiment, the RNA is held at a preset force through feedback control. The preset force typically fluctuated around the mean with a standard deviation ±0.15 pN. In this mode, data is recorded from 4-40 kHz to capture the fast intermediates. The plots are shown as extension vs. time (as in FIG. 6A). In force-jump (FJ) assay, the force is suddenly jumped from one force to another, and then held constant thereafter, as shown in FIGS. 23A-B.
All FR, CF and FJ experiments were carried out at an ambient temperature, 25±0.5° C. The buffer in the microfluidics contained 10 mM Tris-HCl, pH 7.5 at 25° C., 250 mM NaCl, 3 mM MgCl2, and purine concentrations as indicated in wild-type aptamer. Unless stated otherwise, Mg^2+ concentration in the buffer was maintained at 3 mM in all experiments. The buffer in mutant m1 contained 5 mm Mg^2+ and 1 μM G, and in m3 contained 5 mM Mg^2+ and 200 nM Guanine. For the remaining m2, m4, m5 and m6 mutants, the buffer in single-molecule experiments was supplemented only with 3 mM Mg^2+ and 200 nM Guanine.
In the force-ramp experiment, the trap was moved away (pull cycle) from the micropipette at 200 nm/sec, which corresponded to a loading rate of 7-8 pN/sec. This movement of the trap exerted a tension at the ends of the tethered RNA aptamer. […] In the constant-force (CF) experiment, the RNA was held at a preset force (FIG. 6A). The loading rate in CF experiments was zero. The preset force typically fluctuated around the mean with standard deviation ±0.15 pN. […]

Setting [1] is: transition BA (P1 folding), F 8.0 pN.
[2] abbreviates: transition C′B (L2-L3 folding), F 8.0 pN.
[3] abbreviates: transition DC (P3 folding), F 12.0 pN.
[4] abbreviates: transition ED (P2 folding), F 13.5 pN.

“And” between values parts separate entries of the source, which are not always exact repeats. Equal values may be shown once.

B1: m7: m7 mutant guanine sensing aptamer RNA (SEQ ID NO: 8); U25C in J1/2 (nucleic acid)
chain: CACUCAUAUAACCGCGUGGAUAUGGCACGCAAGUUUCUACCGGGCACCGUAAAUGUCCGACUAUGGGUG
modifications: RNA, backbone and methylation of C not given here
Regarding B1, the “Equilibrium force F^eq” value stood at 7.4 ± 0.2 pN (transition BA (P1 folding), 1 uM G (rates at 8.0 pN)); 8.1 ± 0.4 pN (transition C′B (L2-L3 folding), 1 uM G (rates at 8.0 pN)); 11.8 ± 0.05 pN (transition DC (P3 folding), 1 uM G (rates at 12.0 pN)); 13.3 ± 0.05 pN (transition ED (P2 folding), 1 uM G (rates at 13.5 pN)). Moreover, the Folding rate kf reads like this: under setting [1], 0.5 ± 0.08 s⁻¹; under setting [2], 0.9 ± 0.2 s⁻¹; under setting [3], 16.6 ± 0.5 s⁻¹; under setting [4], 10.0 ± 0.3 s⁻¹. Further, the “Transition distance ΔX” value reads like this: under setting [1], 9.6 ± 0.3 nm; under setting [2], 3.5 ± 0.2 nm; under setting [3], 7.6 ± 0.2 nm; under setting [4], 7.1 ± 0.3 nm. In addition, the Unfolding rate ku was determined as 1.7 ± 0.4 s⁻¹ under setting [1], 1.2 ± 0.2 s⁻¹ under setting [2], 28.3 ± 1.0 s⁻¹ under setting [3] and 20.1 ± 0.5 s⁻¹ under setting [4]. In addition, the “ΔG (0)” value was −11.8 kBT and −11.8 ± 0.6 kBT (transition BA (P1 folding), from data at 8.0 pN); −6.5 kBT and −6.5 ± 0.5 kBT (transition C′B (L2-L3 folding), from data at 8.0 pN); −14.8 ± 0.6 kBT (transition DC (P3 folding), from data at 12.0 pN); −15.8 ± 1.0 kBT (transition ED (P2 folding), from data at 13.5 pN).

The values above are taken from patent publication US11905559B2, “Materials and methods for controlling gene expression” (priority 2016, dated 2024).
